# Measured values: patent publication US20250084174A1 (AstraZeneca / MedImmune, published 2025)
# Residue numbers refer to the chain shown, from its start. Read-outs that look alike come from different tables or passages of the source.
# T1: CXCR2 (UniProt P25025 1-360, limits assumed)
# T1 construct: whole, on cells; The cell line is not described
# T1 sequence (looked up): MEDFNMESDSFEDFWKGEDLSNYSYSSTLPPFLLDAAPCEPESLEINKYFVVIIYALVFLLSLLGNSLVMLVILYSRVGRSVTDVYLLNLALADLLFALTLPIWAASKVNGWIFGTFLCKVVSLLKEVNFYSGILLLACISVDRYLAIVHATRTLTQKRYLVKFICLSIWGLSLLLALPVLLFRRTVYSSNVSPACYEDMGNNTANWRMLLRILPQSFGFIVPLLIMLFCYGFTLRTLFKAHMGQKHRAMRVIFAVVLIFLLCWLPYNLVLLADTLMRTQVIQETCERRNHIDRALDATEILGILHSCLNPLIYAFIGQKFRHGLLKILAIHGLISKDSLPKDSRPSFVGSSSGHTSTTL
# T2: cynomolgus CCR9 (cynomolgus, UniProt Q0H741 1-369)
# T2 sequence: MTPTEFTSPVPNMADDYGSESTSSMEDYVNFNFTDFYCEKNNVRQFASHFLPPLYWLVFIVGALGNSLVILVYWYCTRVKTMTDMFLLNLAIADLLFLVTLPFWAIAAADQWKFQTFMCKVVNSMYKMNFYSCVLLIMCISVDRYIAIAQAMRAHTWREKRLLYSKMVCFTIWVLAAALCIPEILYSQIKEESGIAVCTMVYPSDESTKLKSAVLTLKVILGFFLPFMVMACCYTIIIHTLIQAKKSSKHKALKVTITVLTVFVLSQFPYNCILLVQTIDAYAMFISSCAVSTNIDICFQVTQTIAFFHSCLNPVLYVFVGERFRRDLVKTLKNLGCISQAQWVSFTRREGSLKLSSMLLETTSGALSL
# T3: human CCR9B (human, UniProt P51686 13-369)
# T3 construct: Overexpressed on HEK cells; also called Hu B HEK; hCCR9 isoform B
# T3 sequence: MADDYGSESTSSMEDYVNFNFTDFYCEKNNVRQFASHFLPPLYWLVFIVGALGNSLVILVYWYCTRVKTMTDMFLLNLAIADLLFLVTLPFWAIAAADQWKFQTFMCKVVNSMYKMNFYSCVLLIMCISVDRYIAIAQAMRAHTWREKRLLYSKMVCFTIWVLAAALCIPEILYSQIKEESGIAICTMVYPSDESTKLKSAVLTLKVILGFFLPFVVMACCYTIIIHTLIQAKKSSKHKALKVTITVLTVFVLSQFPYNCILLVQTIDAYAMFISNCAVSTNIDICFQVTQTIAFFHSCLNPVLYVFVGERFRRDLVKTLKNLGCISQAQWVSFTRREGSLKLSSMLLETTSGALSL
# T4: CXCR1 (UniProt P25024 1-350, limits assumed)
# T4 construct: whole, on cells; The cell line is not described
# T4 sequence (looked up): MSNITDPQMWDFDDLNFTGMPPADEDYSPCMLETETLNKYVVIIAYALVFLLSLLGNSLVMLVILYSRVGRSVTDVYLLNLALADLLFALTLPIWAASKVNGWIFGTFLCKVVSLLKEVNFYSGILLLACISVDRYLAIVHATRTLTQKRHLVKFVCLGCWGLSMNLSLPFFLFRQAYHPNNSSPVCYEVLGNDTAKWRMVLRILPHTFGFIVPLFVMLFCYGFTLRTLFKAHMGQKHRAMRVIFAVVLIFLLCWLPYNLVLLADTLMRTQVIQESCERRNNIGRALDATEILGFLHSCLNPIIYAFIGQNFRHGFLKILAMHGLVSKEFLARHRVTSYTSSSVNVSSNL
# T5: human CCR9A (human, UniProt P51686 1-369)
# T5 construct: Overexpressed on HEK cells; also called Hu A HEK; hCCR9 isoform A
# T5 sequence: T2 sequence with E5D, V10I, V197I, M228V, S288N
# T6: mouse CCR9 (mouse, UniProt Q9WUT7 1-369)
# T6 construct: whole, on cells; Overexpressed on HEK cells; also called mCCR9; Mouse HEK
# T6 sequence (looked up): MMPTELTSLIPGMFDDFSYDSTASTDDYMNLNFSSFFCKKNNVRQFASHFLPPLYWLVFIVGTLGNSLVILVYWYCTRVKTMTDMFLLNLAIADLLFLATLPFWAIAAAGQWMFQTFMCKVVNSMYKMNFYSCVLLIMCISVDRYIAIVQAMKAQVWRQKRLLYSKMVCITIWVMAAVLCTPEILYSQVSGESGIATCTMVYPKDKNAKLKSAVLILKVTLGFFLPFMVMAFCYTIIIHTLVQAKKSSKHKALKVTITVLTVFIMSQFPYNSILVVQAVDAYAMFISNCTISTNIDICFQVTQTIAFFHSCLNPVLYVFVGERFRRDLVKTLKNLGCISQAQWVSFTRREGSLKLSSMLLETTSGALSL
# T7: rat CCR9 (rat, UniProt Q8CH33 1-369)
# T7 construct: Overexpressed on HEK cells; also called Rat HEK
# T7 sequence: T6 sequence (looked up) with M2T, L6F, F17Y, I60V, L64V, V189I, T197I, S272C, A283T
# B1: AB243LO0326 (antibody, V domains shown)
# VH: QVQLVQSGAEVKKPGASVKVSCKASGYTFTSYWMHWVRQAPGQGLEWIGVIYPGNSDTRYNQKFKGRVTITRDTSASTAYMELSSLRSEDTAVYYCTRDYYSNYVYYYAMDYWGQGTTVTVSS
# VL: DIVMTQTPLSLPVTPGEPASISCRSSQSLVHPNRNTYLHWYLQKPGQSPQLLIYKVSNRFSGVPDRFSGSGSGTDFTLKISRVEAEDVGVYYCSQSTHVPWTFGQGTKLEIK
# modifications: afucosylated form; in the LigandTracer assay DyLight 650 Maleimide on an engineered cysteine residue in the CH2 region
# notes: Full chains are not tied to the tested lot
# B2: AB1020243 afuc (chimeric parent antibody, afucosylated) (antibody, V domains shown)
# VH: EVQLQQSGTVLARPGASVKMSCKASGYTFTSYWMHWVKQRPGQGLEWIGVIYPGNSDTRYNQKFKGKAKLTAVTSATTAYMELSSLTNEDSAVYYCTRDYYSNYVYYYAMDYWGQGTSVTVSS
# VL: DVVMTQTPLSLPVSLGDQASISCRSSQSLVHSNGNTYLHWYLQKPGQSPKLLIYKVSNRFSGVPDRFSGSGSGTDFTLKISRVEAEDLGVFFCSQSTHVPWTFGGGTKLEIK
# modifications: afucosylated form; in the LigandTracer assay DyLight 650 Maleimide on an engineered cysteine residue in the CH2 region
# notes: Mouse variable domains; Called chimeric, with human IgG1 format stated for the LigandTracer assay; also called chimeric AB1020243; parent AB1020243
# B3: AB1020243 (hybridoma mIgG) (antibody, V domains shown)
# VH: B2 VH
# VL: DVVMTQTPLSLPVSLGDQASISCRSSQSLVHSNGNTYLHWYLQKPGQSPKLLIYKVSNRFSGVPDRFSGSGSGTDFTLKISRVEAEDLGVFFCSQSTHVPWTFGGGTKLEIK
# notes: Mouse IgG from the hybridoma; also called clone ZY10O1-A02
# B4: AB243LO0331 (antibody, IgG1, V domains shown)
# VH: B1 VH
# VL: B1 VL with P32S, R34T
# modifications: afucosylated form
# Columns and labels:
# [1] = biological target: T1, CXCR2; assay: binding to cells expressing CXCR2, fluorescence counts (FL1 Counts) against Log M
# [2] = biological target: T2, cynomolgus CCR9; assay: cell-based or functional assay
# [3] = biological target: T8, CCR5 (UniProt P51681 1-352, limits assumed); assay: binding to cells expressing CCR5, fluorescence counts (FL1 Counts) against Log M
# T8 construct: whole, on cells; The cell line is not described
# [4] = biological target: T9, CCR8 (UniProt P51685 1-355, limits assumed); assay: binding to cells expressing CCR8, fluorescence counts (FL1 Counts) against Log M
# T9 construct: whole, on cells; The cell line is not described
# [5] = biological target: T3, human CCR9B; assay: binding to cells expressing human CCR9B, fluorescence counts (FL1 Counts) against Log M
# [6] = biological target: T4, CXCR1; assay: binding to cells expressing CXCR1, fluorescence counts (FL1 Counts) against Log M
# [7] = biological target: T5, human CCR9A; assay: binding to cells expressing human CCR9A, fluorescence counts (FL1 Counts) against Log M
# [8] = biological target: T6, mouse CCR9; assay: cell binding by the methods of Example 4
# [9] = biological target: T7, rat CCR9; assay: cell binding by the methods of Example 4
# [10] = biological target: T9, CCR8; assay: binding to cells expressing CCR8, fluorescence counts (FL1 Counts) against Log M; remark: listed apart in the source
# [11] = biological target: T2, cynomolgus CCR9; assay: binding to HEK cells expressing cynomolgus CCR9, fluorescence counts (FL1 Counts) against Log M
# [12] = biological target: T8, CCR5; assay: binding to cells expressing CCR5, fluorescence counts (FL1 Counts) against Log M; remark: listed apart in the source
# [13] = biological target: T6, mouse CCR9; assay: binding to HEK cells overexpressing mouse CCR9, MFI against [Ab] ug/ml
# Procedure: (§1) The antibody AB1020243 (hybridoma mIgG) was also tested for binding to different forms of CCR9. Briefly, test antibody was diluted to a concentration of 60 μg/mL in assay buffer containing Hanks Balanced Salt solution (Sigma HB264) plus 0.1% Bovine Serum Albumin (Sigma A9576). Antibody was titrated in duplicate using single fold titrations over 24 points on a 384 black clear bottomed, non-binding microplate (Corning® NBS™ 3655) so that the final volume of test antibody was 10 μL per well. […]
# (§2) Transfected HEK CCR9 overexpressing cell lines or un-transfected parental control cells were suspended in assay buffer at a concentration of 1×10⁶ cells per ml, and 10 μL of cells were dispensed to the assay plate containing test antibody and secondary antibody using a Multidrop dispenser (Thermo Scientific). Assay plates were incubated overnight at 4° C. and were read on a mirrorball® (laser scanning fluorescence cytometer; TTP-Labtech) using excitation at 488 nm and emission using the FL4channel (667-685 nm). Data was plotted in GraphPad Prism version 8.0.0 for Windows (GraphPad Software, San Diego, California USA) and expressed as Log (mg/mL antibody) v's Fluorescence (FL4) counts.
# [14] = biological target: T7, rat CCR9; assay: binding to HEK cells overexpressing rat CCR9, MFI against [Ab] ug/ml
# Procedure: as §1, §2
# [15] = biological target: T3, human CCR9B; assay: binding to HEK cells overexpressing human CCR9B, MFI against [Ab] ug/ml; Parental HEK stays at about 0
# Procedure: as §1, §2
# [16] = biological target: T5, human CCR9A; assay: binding to HEK cells overexpressing human CCR9A, MFI against [Ab] ug/ml; Parental HEK stays at about 0
# Procedure: as §1, §2
# T9 sequence (P51685 whole entry): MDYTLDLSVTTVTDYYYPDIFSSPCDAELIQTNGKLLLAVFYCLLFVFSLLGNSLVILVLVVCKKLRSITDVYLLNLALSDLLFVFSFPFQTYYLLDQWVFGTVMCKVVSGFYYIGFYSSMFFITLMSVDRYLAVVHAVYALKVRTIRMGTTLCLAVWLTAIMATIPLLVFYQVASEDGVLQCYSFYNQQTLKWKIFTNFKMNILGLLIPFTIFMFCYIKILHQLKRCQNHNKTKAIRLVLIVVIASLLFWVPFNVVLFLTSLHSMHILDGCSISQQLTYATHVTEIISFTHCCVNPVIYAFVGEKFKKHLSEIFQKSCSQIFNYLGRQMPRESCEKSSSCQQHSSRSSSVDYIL
# T8 sequence (P51681 whole entry): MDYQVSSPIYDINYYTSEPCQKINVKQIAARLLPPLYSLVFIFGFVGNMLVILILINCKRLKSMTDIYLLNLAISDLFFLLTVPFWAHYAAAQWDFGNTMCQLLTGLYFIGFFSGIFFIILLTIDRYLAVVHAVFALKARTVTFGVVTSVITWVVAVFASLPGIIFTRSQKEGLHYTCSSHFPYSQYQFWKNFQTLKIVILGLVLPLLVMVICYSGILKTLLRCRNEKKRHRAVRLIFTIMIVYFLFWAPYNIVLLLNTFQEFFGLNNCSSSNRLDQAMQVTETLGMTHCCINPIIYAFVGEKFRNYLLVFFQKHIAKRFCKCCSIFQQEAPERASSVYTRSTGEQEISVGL
binder,measurement,setting,value
B1,binding result,[1],no binding (tested: Log M about -6.9 (about 1e-7 M))
same,"EC50, killing of cynomolgus CD4+CCR9+ PBMC",[2],0.03 nM
same,binding result,[3],no binding (tested: Log M about -6.9 (about 1e-7 M))
same,binding result,[4],no binding (tested: Log M about -6.9 (about 1e-7 M))
same,binding result,[5],binds
same,binding result,[6],no binding (tested: Log M about -6.9 (about 1e-7 M))
same,binding result,[7],binds
same,binding result,[8],no binding
same,binding result,[9],no binding
B2,binding result,[1],no binding (tested: Log M about -6.9 (about 1e-7 M))
same,binding result,[6],no binding (tested: Log M about -6.9 (about 1e-7 M))
same,binding result,[10],no binding (tested: Log M about -6.5 (about 3e-7 M))
same,EC50 (read off the curve),[11],~0.6 nM
same,binding result,[12],no binding (tested: Log M about -6.5 (about 3e-7 M))
B3,binding result,[13],no binding (tested: 10 ug/ml)
same,binding result,[14],no binding (tested: 10 ug/ml)
same,binding result,[15],binds
same,binding result,[16],binds
B4,binding result,[8],no binding
same,binding result,[9],no binding
